For test [1], the target named is GluN1^ΔM4/GluN2A receptor (M4-truncated core receptor) (rat | mouse) (UniProt P35439).
In test [2] the target is GluN1/GluN2A^ΔM4 receptor (rat | mouse) (UniProt P35439).
The target of test [3] is GluN1^ΔM4/GluN2A^F637A receptor (rat | mouse) (UniProt P35439).

In the case of “M4^N1-F817A (from UniProt P35439 802-925) (domain or fragment)”, the rescue of agonist-induced current (TEVC) in oocytes co-expressing M4^N1-F817A with GluN1^ΔM4/GluN2A, compared with wt M4^N1 in test [1] is 90 % decrease.

Substance “M4^N2A, isolated GluN2A M4 fragment (GluN2A^804–1464) (from UniProt P35436 804-1464) (domain or fragment)” returned a rescue of agonist-induced current: Imax by TEVC in oocytes co-expressing M4^N2A with GluN1/GluN2A^ΔM4 in test [2] of 0.24 µA. In test [3], “M4^N1, isolated GluN1 M4 fragment (GluN 1^802–925) (from UniProt P35439 802-925) (domain or fragment)” yielded a rescued Imax current (TEVC) of GluN1^ΔM4/GluN2A^F637A co-expressed with M4^N1, normalised to the unmutated receptor of 50 % decrease. The rescue of agonist-induced current: Imax by TEVC in oocytes co-expressing M4^N1 with GluN1/GluN2A^ΔM4 in test [2] was determined as 0.016 µA.

The values above are taken from publication PMC8517087, “Analysis of M4 Transmembrane Segments in NMDA Receptor Function: A Negative Allosteric Modulatory Site at the GluN1 M4 is Determining the Efficiency of Neurosteroid Modulation” (Frontiers in Pharmacology, 2021).
